Experimental findings from patent US20150023989A1 (Seagen, published 2015) are described below.

For this test, the target named is T1, hFGFR2α-Fc (IIIb) (Human, UniProt P21802-3 22-378, biotinylated with biotin-LC-NHS (2-fold molar excess), positions not stated).
T1 construct: Bought protein; also called RnD Systems 663-FR; not shown: Fc part of the bought fusion protein
In words: ELISA; biotinylated Fc fusion protein on streptavidin plate, Fab at 1 µg/ml; signal against TRAIL-Fc wells (+++: ratio >5). A general note: ELISA stands for enzyme-linked immunosorbent assay.

T1 sequence (P21802 other isoform, or with tags, fused parts or gaps limits assumed): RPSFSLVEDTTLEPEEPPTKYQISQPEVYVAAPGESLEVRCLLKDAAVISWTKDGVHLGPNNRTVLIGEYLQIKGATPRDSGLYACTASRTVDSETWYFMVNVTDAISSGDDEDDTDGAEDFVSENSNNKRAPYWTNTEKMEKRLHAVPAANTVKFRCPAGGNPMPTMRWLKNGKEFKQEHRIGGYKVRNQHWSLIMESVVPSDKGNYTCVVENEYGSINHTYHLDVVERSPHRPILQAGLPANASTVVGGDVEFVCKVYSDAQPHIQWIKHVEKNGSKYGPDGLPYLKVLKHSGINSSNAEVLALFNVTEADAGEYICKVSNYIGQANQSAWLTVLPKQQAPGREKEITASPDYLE

B1: parental Fab fragment M048-D01 (Fab, V domains shown)
VH: EVQLLESGGGLVQPGGSLRLSCAASGFTFSSYAMSWVRQAPGKGLEWVSAISGSGTSTYYADSVKGRFTISRDNSKNTLYLQMNSLRAEDTAVYYCARVRYNWNHGDWFDPWGQGTLVTVSS
VL: QSVLTQPPSASGTPGQRVTISCSGSSSNIGNNYVSWYQQLPGTAPKLLIYENYNRPAGVPDRFSGSKSGTSASLAISGLRSEDEADYYCSSWDDSLNYWVFGGGTKLTVL
notes: Fab from the n-CoDeR phage display library, expressed in E. coli and purified through its his-tag; constant domains and tag are not; also called M048-D01 Fab; sFab
As for B1, the binding result is “binds”.
